Patent publication US7902348B2, “Janus family kinases and identification of immune modulators” (The United States of America as represented by the …, priority 1995, dated 2011)

T1: γc-JAK-3 interaction (Homo sapiens, UniProt P52333)
T1 construct: endogenous in cells; host or cells: YT cells (alternatively COS-7 cells expressing γc and JAK-3)
T1 sequence (P52333 1-1124): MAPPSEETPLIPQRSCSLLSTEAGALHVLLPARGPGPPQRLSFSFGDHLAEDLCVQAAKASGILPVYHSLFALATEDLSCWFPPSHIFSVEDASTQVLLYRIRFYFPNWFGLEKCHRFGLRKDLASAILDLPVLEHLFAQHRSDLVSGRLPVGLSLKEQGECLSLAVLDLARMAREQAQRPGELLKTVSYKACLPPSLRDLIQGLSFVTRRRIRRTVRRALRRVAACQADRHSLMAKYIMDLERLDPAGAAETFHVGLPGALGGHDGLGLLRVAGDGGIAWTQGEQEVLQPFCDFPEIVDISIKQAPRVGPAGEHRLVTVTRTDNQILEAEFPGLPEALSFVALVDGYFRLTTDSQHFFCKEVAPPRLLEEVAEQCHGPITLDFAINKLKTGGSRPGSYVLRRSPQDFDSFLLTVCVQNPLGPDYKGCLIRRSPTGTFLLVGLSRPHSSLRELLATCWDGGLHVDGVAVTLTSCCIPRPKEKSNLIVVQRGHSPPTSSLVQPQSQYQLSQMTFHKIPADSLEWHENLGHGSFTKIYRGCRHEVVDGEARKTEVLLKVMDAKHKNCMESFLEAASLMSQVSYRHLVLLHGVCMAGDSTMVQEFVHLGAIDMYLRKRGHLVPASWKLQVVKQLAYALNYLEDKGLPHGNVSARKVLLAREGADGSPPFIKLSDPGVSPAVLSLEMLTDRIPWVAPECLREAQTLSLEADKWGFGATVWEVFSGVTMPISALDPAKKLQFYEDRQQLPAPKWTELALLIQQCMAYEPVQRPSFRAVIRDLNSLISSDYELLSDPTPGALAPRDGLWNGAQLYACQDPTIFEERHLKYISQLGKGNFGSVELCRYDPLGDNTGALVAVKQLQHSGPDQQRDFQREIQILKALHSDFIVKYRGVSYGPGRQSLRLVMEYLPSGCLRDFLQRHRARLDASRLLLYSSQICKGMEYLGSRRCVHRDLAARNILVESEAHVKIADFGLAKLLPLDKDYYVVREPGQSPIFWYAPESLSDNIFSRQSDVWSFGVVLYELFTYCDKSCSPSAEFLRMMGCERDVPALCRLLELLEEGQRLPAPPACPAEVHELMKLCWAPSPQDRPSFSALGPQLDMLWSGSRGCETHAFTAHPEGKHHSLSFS

B1: IL-4: cytokine that utilizes the common γ chain of the IL-2 receptor (protein, UniProt P05112 25-153, looked up)
Interleukin-4: HKCDITLQEIIKTLNSLTEQKTLCTELTVTDIFAASKNTTEKETFCRAATVLRQFYSHHEKDTRCLGATAQQFHRHKQLIRFLKRLDRNLWGLAGLNSCPVKEANQSTLENFLERLKTIMREKYSKCSS
B2: IL-7: cytokine, known γc user (protein, UniProt P13232 26-177, looked up)
Interleukin-7: DCDIEGKDGKQYESVLMVSIDQLLDSMKEIGSNCLNNEFNFFKRHICDANKEGMFLFRAARKLRQFLKMNSTGDFDLHLLKVSEGTTILLNCTGQVKGRKPAALGEAQPTKSLEENKSLKEQKKLNDLCFLKRLLQEIKTCWNKILMGTKEH

Legend:
[1] = biological target: T1, γc-JAK-3 interaction; test: Assay for compounds that inhibit IL-2 receptor complex formation: γc-JAK-3 coprecipitation (Example 15); assay type: binding; conditions: peptide 140 μM added to cell lysates, anti-γc immunoprecipitation, JAK-3 immunoblot
Procedure: The peptide to be tested as an inhibitor corresponded to the first 19 amino acids of the γc cytoplasmic tail (sequence […]) (SEQ ID NO:7). […] The negative control peptide had the sequence […] (SEQ ID NO:10), and was synthesized so that the Tyr residue at position 5 of the peptide was phosphotyrosine. The test peptide or the negative control peptide were separately added to the cell lysates to final concentrations of 140 μM. The positive control immunoprecipitation was carried out in the absence of added peptide. Lysates were immunoprecipitated for 16 hours at 4° C. using antibodies to γc and protein A sepharose and washed six times before electrophoresis on SDS gels. The gels were immunoblotted with antisera to JAK-3 using ECL as described previously.

[2] = tested on: JAK-1; test: Cytokine-induced phosphorylation and activation of JAK-1 in PHA-activated peripheral blood lymphocytes (Example 11); assay type: cell-based, human; conditions: for tyrosine phosphorylation of JAK-1: PBL, 15 minutes, Western blotting; for activation of JAK-1: in vitro kinase assays
Procedure: (§1) The PBL were activated for 72 hours with PHA, then washed twice at pH 6.5, incubated for 3 hours in medium containing 0.5% human serum and resuspended in medium containing 10% fetal calf serum for one hour. Cells were then lysed and immunoprecipitated with polyclonal antibodies to JAK-1 (UBI) or JAK-3. The anti-JAK-3 antibody used in these procedures has been described by Johnston et al., in Nature 370:151 (1994). Phosphotyrosine-containing proteins were detected by immunoblotting with 4G10 (UBI). […] In one procedure, the lysate was precleared with polyclonal antibody to JAK-3.

[3] = tested on: JAK-3; test: Cytokine-induced phosphorylation and activation of JAK-3 in PHA-activated peripheral blood lymphocytes (Example 11); assay type: cell-based, human; conditions: for tyrosine phosphorylation of JAK-3: PBL, 15 minutes, Western blotting; for activation of JAK-3: in vitro kinase assays
Procedure: as §1

[4] = tested on: JAK-3; test: Cytokine-induced tyrosine phosphorylation of JAK-3 in YT cells (Example 10); assay type: cell-based, human; conditions: 15 minutes stimulation, anti-JAK-3 IP, antiphosphotyrosine blot
Procedure: (§2) YT cells were serum-starved for 3 hours and acid washed twice before stimulation and immunoprecipitation. NK 3.3 cells were grown for 2 days in 10% lymphocult (Biotest) and 15% fetal bovine serum before being washed and incubated in 2% serum. Commercial polyclonal anti-JAK-1 and JAK-2 antisera were obtained from UBI and Tyk2 polyclonal antiserum from Santa Cruz Biotechnology.

[5] = tested on: JAK-3; test: Cytokine-induced tyrosine phosphorylation of JAK-3 in NK 3.3 cells (Example 10); assay type: cell-based, human; conditions: 5 or 15 minutes stimulation
Procedure: as §2
Cellular lysates were immunoprecipitated with anti-JAK-3 and blotted with antiphosphotyrosine.

Row | Molecule | inhibition of γc-JAK-3 coprecipitation [1] | tyrosine phosphorylation of JAK-1 [2] | activation of JAK-1 [2] | tyrosine phosphorylation of JAK-3 [3] | activation of JAK-3 [3] | other results
1 | APPCYTLKPET (n-terminal fragment) [negative control peptide, reference compound] | failed to inhibit | – | – | – | – | –
2 | IL-9: cytokine, known γc user | – | induced tyrosine phosphorylation | activated | induced tyrosine phosphorylation | activated | –
3 | GM-CSF: granulocyte macrophage colony stimulating factor | – | – | – | – | – | JAK-3 tyrosine phosphorylation [4]: not phosphorylated
4 | ERTMPRIPTLKNLEDLVTE (n-terminal fragment) [competitor peptide] | partially inhibited | – | – | – | – | inhibition of γc-JAK-3 coprecipitation ([1]; listed as 19 amino acid long peptide spanning Leu 271): only partially inhibited; inhibition of γc-JAK-3 coprecipitation ([1]; listed as 19 amino acid polypeptide having the sequence of SEQ ID NO:6): inhibited
5 | B1 | – | induced tyrosine phosphorylation | activated | induced tyrosine phosphorylation | activated | JAK-3 tyrosine phosphorylation [5]: tyrosine phosphorylated
6 | B2 | – | induced tyrosine phosphorylation | activated | induced tyrosine phosphorylation | activated | –
